Laboratory results: patent US20250375530A1, “ROR1/EGFR BI-SPECIFIC ANTIGEN BINDING MOLECULES” (ALMAC DISCOVERY LIMITED, priority 2022, published 2025)

Experiment: Analytical SEC of P3A1 loop variants (Superdex 75 increase 10/300 GL, PBS pH 7.4)
Assay type: physicochemical
Procedure: Chromatography was carried out in PBS pH 7.4.

B1: P3A1 G1 NAG8: P3A1 G1 loop variant VNAR, SEQ ID NO: 81 (protein)
chain: TRVDQSPSSLSASVGDRVTITCVLTGTKYGLYATYWYRKNPGSPNKDRMIIGGRYSESVNNGTKSFTLTISSLQPEDSATYYCRAREARHPWLRQWYDGAGTKVEIKQACKAHHHHHHGAEFEQKLISEEDLG
In the case of B1, the “% monomer by SEC” value is reported as 100% and the “SEC elution volume” value is reported as 14.8 mL.

B2: P3A1 G1 AE3: P3A1 G1 loop variant VNAR, SEQ ID NO: 77 (protein)
chain: TRVDQSPSSLSASVGDRVTITCVLTGTRYGLYSTYWYRKNPGSSDEERISISGRYSESVNKGTKSFTLTISSLQPEDSATYYCRAREARHPWLRQWYDGAGTKVEIKQACKAHHHHHHG
For B2, the “% monomer by SEC” value was 100% and the “SEC elution volume” value was 17.3 mL.

B3: P3A1 G1 NAC6: P3A1 G1 loop variant VNAR, SEQ ID NO: 79 (protein)
chain: TRVDQSPSSLSASVGDRVTITCVLTDTRYALYSTYWYRKNPGSTDEERISIGGRYSESVNKGSKSFTLTISSLQPEDSATYYCRAREARHPWLRQWYDGAGTKVEIKQACKAHHHHHHG
For B3, the “% monomer by SEC” value was 100% and the “SEC elution volume” value was 17.3 mL.

B4: P3A1 G1: humanised version of the ROR1 binding VNAR P3A1, SEQ ID NO: 114 (protein)
chain: TRVDQTPSSLSASVGDRVTITCVLTDTSYGLYSTYWYRKNPGSSNKEQISISGRYSESVNKGTKSFTLTISSLQPEDSATYYCRAREARHPWLRQWYDGAGTKVEIKQASGAHHHHHHGAEFEQKLISEEDL
In the case of B4, the “% monomer by SEC” value is reported as 100% and the “SEC elution volume” value is reported as 15.47 mL.
